# Test results taken from patent US9504755B2, “Multi-arm polymeric alkanoate conjugates” (Nektar Therapeutics, priority 2008, dated 2016).
# Tests used:
# [1] = Plasma and tumor pharmacokinetics in H460 tumor-bearing nude mice; assay type: in vivo, mouse; conditions: for AUClast, analyte docetaxel, plasma / AUClast, analyte docetaxel, tumor / Tmax, analyte docetaxel, plasma / Tmax, analyte docetaxel, tumor / Cmax, analyte docetaxel, plasma / Cmax, analyte docetaxel, tumor: single IV; for AUClast, analyte docetaxel, plasma / AUClast, analyte docetaxel, tumor: 25 mg/kg docetaxel or 33 mg/kg conjugate (MTDs); for Tmax, analyte docetaxel, plasma / Tmax, analyte docetaxel, tumor / Cmax, analyte docetaxel, plasma / Cmax, analyte docetaxel, tumor: 25 mg/kg docetaxel or 33 mg/kg conjugate
# Description: To assess whether the improved antitumor activity was due to greater plasma and tumor docetaxel exposure following 4-ARM-PEG20K-BA-DOC administration, plasma and tumor homogenates were analyzed after a single IV administration of 4-ARM-PEG20K-BA-DOC or docetaxel in mice bearing H460 tumors. In looking at each of 4-ARM-PEG20K-BA-DOC and docetaxel dosed at their respective maximum tolerated doses (MTDs) of 33 and 25 mg/kg, the following was observed. […] The maximum plasma docetaxel concentration with 4-ARM-PEG20K-BA-DOC was 13-fold lower than that with docetaxel.
# The objective of this study was to compare docetaxel pharmacokinetics following 4-ARM-PEG20K-BA-docetaxel with that following docetaxel administration, in plasma and tumor tissue of athymic female mice bearing H460 NSCLC tumors and to determine the effects on complete blood counts. This example summarizes the pharmacokinetic results.
# H460 tumor cells were grown in vitro and implanted subcutaneously into female HRLN nude mice. When tumor sizes reached between 172 and 288 mg, animals were dosed by intravenous bolus injection with 25 mg/kg docetaxel or 33 mg/kg 4-ARM-PEG20K-BA-docetaxel at a dosing volume of 10 mL/kg. These dose levels correspond to the maximum tolerated doses for docetaxel and 4-ARM-PEG20K-BA-docetaxel administered on a q7d×3 schedule in this tumor model. Blood and tumor samples (n=7 timepoints with n=3/timepoint) were collected from 0 to 7 days after IV injection. Plasma and tumor samples were analyzed for docetaxel and 4-ARM-PEG20K-BA-docetaxel.
# [2] = Stability in mouse plasma; assay type: in vitro ADME; conditions: 37° C.
# Description: (§1) The objective of the study was to assess the stability of 4-ARM-PEG20K-BA-docetaxel in mouse, rat, dog, and human plasma.
# (§2) 4-ARM-PEG20K-BA-docetaxel was spiked ([…]; 60 μM) into heparinized, pooled male mouse, rat, and dog plasma; mixed sex pooled human plasma; and phosphate buffered saline. Triplicate samples were incubated at 37° C. for 0, 15, 30, 60, 120, and 240 min. Aliquots were removed at each timepoint and analyzed for disappearance of 4-ARM-PEG20K-BA-docetaxel and appearance of docetaxel using the validated dog plasma analytical method.
# Stability in rat plasma = assay type: in vitro ADME; conditions: 37° C.
# Description: as §1, §2
# Stability in dog plasma = assay type: in vitro ADME; conditions: 37° C.
# Description: as §1, §2
# [3] = Stability in human plasma; assay type: in vitro ADME; conditions: 37° C.
# Description: as §1, §2
# [4] = Stability in phosphate buffered saline; assay type: physicochemical; conditions: 37° C.
# Description: as §1, §2
# [5] = 19 mg/kg conjugate (extrapolated) vs 25 mg/kg docetaxel
# [6] = 33 mg/kg conjugate vs 25 mg/kg docetaxel
# [7] = 33 mg/kg conjugate vs 25 mg/kg docetaxel, listed as Conjugate Lot 1
# [8] = 33 mg/kg conjugate vs 25 mg/kg docetaxel, listed as Conjugate Lot 2
# [9] = single IV 33 mg/kg conjugate, listed as Conjugate Lot 1, 33 mg/kg
# [10] = single IV 33 mg/kg conjugate, listed as Conjugate Lot 2, 33 mg/kg
# [11] = listed as 4-ARM-PEG20K-BA-docetaxel
# [12] = female, HRLN nude, mouse, in vivo, iv, 25 mg/kg, analyte docetaxel, tumor
molecule,measurement,setting,value
4-ARM-PEG20K-Butanoate-Linked Docetaxel Conjugate [4-ARM-PEG20K-BA-DOC],"AUC, docetaxel in plasma","[1]; 19 mg/kg (58% MTD), extrapolated from the 33 mg/kg dose",3488^# hr*ng/mL
same,"4-ARM-PEG20K-BA-DOC to Docetaxel Ratio, plasma AUC",[1]; [5],0.6
same,"4-ARM-PEG20K-BA-DOC to Docetaxel Ratio, tumor AUC",[1]; [5],1.3
same,"conjugate AUC, fold lower in tumor compared to plasma",[1]; 33 mg/kg,approximately 2 fold
same,"conjugate Cmax, fold lower in tumor compared to plasma",[1]; 33 mg/kg,17 fold
same,"Conjugate to Docetaxel ratio, AUC, docetaxel in plasma",[1]; [6],1.0
same,"Conjugate to Docetaxel ratio, AUC, docetaxel in tumor",[1]; [6],2.3
same,"maximum plasma docetaxel concentration, fold lower than with docetaxel",[1]; [6],13 fold
same,plasma docetaxel AUC compared with docetaxel treatment,[1]; [6],similar
same,"tumor docetaxel AUC, fold greater than for docetaxel",[1]; [6],2 fold
same,"maximum plasma docetaxel concentration, fold lower than with docetaxel","[1]; 33 mg/kg conjugate vs 25 mg/kg docetaxel, listed as 4-ARM-PEG20K-BA-docetaxel",about 14 fold
same,"Conjugate to Docetaxel ratio, AUC, docetaxel in plasma",[1]; [7],1.0
same,"Conjugate to Docetaxel ratio, AUC, docetaxel in tumor",[1]; [7],2.3
same,"Conjugate to Docetaxel ratio, Cmax, docetaxel in plasma",[1]; [7],0.08
same,"Conjugate to Docetaxel ratio, Cmax, docetaxel in tumor",[1]; [7],1.3
same,"Conjugate to Docetaxel ratio, AUC, docetaxel in plasma",[1]; [8],0.9
same,"Conjugate to Docetaxel ratio, AUC, docetaxel in tumor",[1]; [8],2.7
same,"Conjugate to Docetaxel ratio, Cmax, docetaxel in plasma",[1]; [8],0.06
same,"Conjugate to Docetaxel ratio, Cmax, docetaxel in tumor",[1]; [8],2.0
same,conjugate tumor to plasma ratio,"[1]; by 168 hr post-dose, 33 mg/kg",about 7
same,plasma docetaxel concentration,[1]; for up to 168 hr after single IV 33 mg/kg conjugate,above 5 ng/mL
same,"tumor docetaxel concentrations, fold higher than after docetaxel",[1]; from 24 hr post dose through the end of sampling,approximately 5 fold
same,"Tmax, analyte conjugate, plasma",[1]; single IV 33 mg/kg conjugate,0.5 h
same,"Tmax, analyte conjugate, tumor","[1]; single IV 33 mg/kg conjugate, listed as 4-ARM-PEG20K-BA-docetaxel, 33 mg/kg",≤ 4 h
same,"AUClast, analyte conjugate, plasma",[1]; [9],1097.606 µg·h/mL
same,"AUClast, analyte conjugate, tumor",[1]; [9],652.823 µg·h/mL
same,"Cmax, analyte conjugate, plasma",[1]; [9],128354 ng/mL
same,"Cmax, analyte conjugate, tumor",[1]; [9],7062 ng/mL
same,"Tmax, analyte conjugate, tumor",[1]; [9],4 h
same,"AUClast, analyte conjugate, plasma",[1]; [10],1852.51 µg·h/mL
same,"AUClast, analyte conjugate, tumor",[1]; [10],718.068 µg·h/mL
same,"Cmax, analyte conjugate, plasma",[1]; [10],118209 ng/mL
same,"Cmax, analyte conjugate, tumor",[1]; [10],7675 ng/mL
same,"AUClast, analyte docetaxel, plasma",[1],6.013 µg·h/mL
same,"AUClast, analyte docetaxel, tumor",[1],"313,558 hr*ng/mL"
same,"AUClast, analyte docetaxel, tumor",[1]; listed as Conjugate Lot 1,313558 ng·h/mL
same,"AUClast, analyte docetaxel, plasma",[1]; listed as Conjugate Lot 2,5.57 µg·h/mL
same,"AUClast, analyte docetaxel, tumor",[1]; listed as Conjugate Lot 2,380617 ng·h/mL
same,"Tmax, analyte docetaxel, plasma",[1]; [11],0.5 h
same,"Tmax, analyte docetaxel, tumor",[1]; [11],≤ 12 h
same,"Cmax, analyte docetaxel, plasma",[1]; listed as Conjugate Lot 1,195 ng/mL
same,"Cmax, analyte docetaxel, tumor",[1]; listed as Conjugate Lot 1,2931 ng/mL
same,"Tmax, analyte docetaxel, plasma",[1]; listed as Conjugate Lot 1,12 h
same,"Tmax, analyte docetaxel, tumor",[1]; listed as Conjugate Lot 1,12 h
same,"Cmax, analyte docetaxel, plasma",[1]; listed as Conjugate Lot 2,162 ng/mL
same,"Cmax, analyte docetaxel, tumor",[1]; listed as Conjugate Lot 2,4623 ng/mL
same,Conjugate remaining at 4 hr (%),[2]; 60 μM,72%
same,Docetaxel released at 4 hr (%),[2]; 60 μM,20%
same,Mass balance (%),[2]; 4 hr,92%
same,Conjugate remaining at 4 hr (%),Stability in rat plasma; 60 μM,64%
same,Docetaxel released at 4 hr (%),Stability in rat plasma; 60 μM,20%
same,Mass balance (%),Stability in rat plasma; 4 hr,84%
same,Conjugate remaining at 4 hr (%),Stability in dog plasma; 60 μM,93%
same,Docetaxel released at 4 hr (%),Stability in dog plasma; 60 μM,3%
same,Mass balance (%),Stability in dog plasma; 4 hr,95%
same,Conjugate remaining at 4 hr (%),[3]; 60 μM,88%
same,Docetaxel released at 4 hr (%),[3]; 60 μM,4%
same,Mass balance (%),[3]; 4 hr,92%
same,Docetaxel released at 4 hr (%),[4]; 60 μM,0.6%
same,Mass balance (%),[4]; 4 hr,86%
"CC(=O)O[C@@]12CO[C@@H]1C[C@H](O)[C@@]1(C)C(=O)[C@H](O)C3=C(C)[C@@H](OC(=O)[C@H](O)[C@@H](NC(=O)OC(C)(C)C)c4ccccc4)C[C@@](O)([C@@H](OC(=O)c4ccccc4)[C@H]21)C3(C)C [Docetaxel, reference compound]",concentration at 72 hr,"[1]; female, HRLN nude, mouse, in vivo, iv, 25 mg/kg",< 1 ng/mL
same,AUC(0-t),"[1]; female, HRLN nude, mouse, in vivo, iv, 25 mg/kg, AUClast, analyte docetaxel, tumor",139 µg·h/mL
same,Cmax,"[1]; female, HRLN nude, mouse, in vivo, iv, 25 mg/kg, analyte docetaxel, plasma",2570 ng/mL
same,Cmax,[1]; [12],2340 ng/mL
same,Tmax,[1]; [12],4 h
same,Tmax,"[1]; female, HRLN nude, mouse, in vivo, iv, analyte docetaxel, plasma",0.5 h
same,Tmax,"[1]; female, HRLN nude, mouse, in vivo, iv, analyte docetaxel, tumor",≤ 4 h
